# Details: Hordeum vulgare; pH 6.3; 25 °C; GdnHCl; Fluorescence; MES 450 mM; reversible: yes; whole UniProt chain shown
protein,measurement,value
"Subtilisin-chymotrypsin inhibitor-2A wild type, P01053 (protein) MSSVEKKPEGVNTGAGDRHNLKTEWPELVGKSVEEAKKVILQDKPEAQIIVLPVGTIVTMEYRIDRVRLFVDKLDNIAQVPRVG",denaturant m value,1.89 kcal/mol/M
same,denaturant midpoint (higher = more stable),3.99 M
same,unfolding free energy,7.53 kcal/mol
